Here are results for one molecule from patent US9163227B2, “Anti-diabetic compounds” (PFIZER INC., priority 2011, dated 2015).

The target in data set [1] is Glut1 mRNA expression in differentiated 3T3-L1 adipocytes (Mus musculus, UniProt P16092+Q99N32). Nature of the data set: Glut1 Taqman assay. The data set is classed as cell-based. Here is the method: Differentiated 3T3-L1 adipocytes were used to measure the Glut1 mRNA expression by qPCR method. Overnight serum starved day 10-14 differentiated 3T3-L1 adipocytes were treated with compounds for 6 hrs. Total RNA was extracted from these cells, and Glut1 and GAPDH mRNA expression was measured using a Quantitect Probe RT-PCR kit and running a quantitative real time PCR reaction in a Taqman machine (Applied Biosystems®). The bioactivity of the compounds was determined by a fold change in Glut1 mRNA levels normalized by the GAPDH mRNA levels from each sample. EC═values as measurements of the potency of the compounds were obtained from the dose response curves in the assay.
3T3-L1 adipocytes were seeded at day 8 in 24-well tissue culture plates (Falcon®, Cat#353047), and incubated in DMEM complete medium (10% FBS, 2 mM L-glutamine, 1% P/S) at 37° C., 5% CO2. […] The medium was aspirated, and then RNA extracted from the cells using the RNeasy mini Kit according to the manufacturer's instructions. RNA was measured at A260 nm using the Spectramax® Plus spectrophotometer.
In Glut1 Taqman assay, differentiated 3T3-L1 adipocytes were used to measure the Glut1 mRNA expression by real-time quantitative PCR (qPCR) method described below. Overnight serum starved day 10-14 differentiated 3T3-L1 adipocytes were treated with compounds for 6 hrs. Total RNA was extracted from these cells, and Glut1 and GAPDH mRNA expression was measured using a Quantitect Probe RT-PCR kit and running a real time quantitative PCR reaction in a Taqman machine. The bioactivity of the compounds was determined by a fold change in Glut1 mRNA levels normalized by the GAPDH mRNA levels from each sample. In cAMP assay, Chinese hamster ovary (CHO) cells over-expressing human GLP-1R(CHO-hGLP-1R) were seeded in 96-well plates in serum-free medium with 300 uM IBMX. Cells were incubated with compounds at RT for 1 hr. The cAMP levels were measured using a CisBio cAMP Kit according to manufacturer's instructions. The bioactivity of the compounds was determined by the EC50 values obtained from the assay (see Table 42).

The target of data set [2] is differentiated 3T3-L1 adipocytes (Mus musculus, UniProt P16092+Q99N32). Description: Glucose uptake assay. To be noted: unconjugated protein (per Examples 18-21); n in parentheses. Format: cell-based. Here is the method: Differentiated 3T3-L1 adipocytes were treated with compounds in the absence of serum for 24 hrs. Cells were then incubated with ^14C-2-deoxyglucose for 1 hr and glucose uptake into the cells was quantitated in Wallac 1450 MicroBeta (Trilux) instrument. Glucose uptake was expressed in counts per min (CPM). EC50 values as measurements of the potency of the compounds were obtained from the dose response curves in the assay.

A short description of data set [3]: Mouse pharmacokinetics of FGF21 antibody conjugates. The note with it: mouse PK; antibody conjugate at the named site (protein for FGF21ΔH). The data set is classed as in vivo, Swiss-Webster mice. As for the experimental part:
The PK of FGF21 antibody conjugates were examined in mice after IV or SC administration. […] Antibody conjugates concentrations in serum were determined using an ELISA which captured the FGF21 portion of the antibody conjugates through a monoclonal anti-hFGF21 antibody bound to a 96-well plate. FGF21 antibody conjugates bound to the plate were detected through an anti-hFc monoclonal antibody, and concentrations were determined using a standard curve of the PK dosing solution diluted into serum-containing assay buffer. SC bioavailability was calculated as the ratio of the area-under the curve (AUC) of the SC serum concentration profile divided by the AUC of the IV serum concentration profile.

The test system of the next data set is ob/ob mice. Description: Oral glucose tolerance test in ob/ob mice (FGF21 conjugates). Format: in vivo. To be noted: for Mean Glucose AUC (% of vehicle control) during OGTT: FIGS. 4A/4B. As for the experimental part: (§1) The efficacy of FGF21 antibodies conjugates was evaluated in two murine obese insulin resistant models—ob/ob mice and high-fat diet-induced obese mice. For both models, male mice (6-8 weeks of age for ob/ob, 12-14 weeks of age for DIO with high-fat diet initiated at 6 weeks of age) were housed 2-4/cage and FGF21 antibody conjugates were administered by SC injection. Body weight was measured daily in the morning. Glucose tolerance was assessed by oral glucose tolerance test. Briefly, mice were fasted for 4-5 hrs in the morning of the day of testing. A basal blood sample was obtained and blood glucose levels were determined using a portable glucometer.

The nature of data set [4]: Body weight and liver weight in ob/ob mice. The data set is classed as in vivo. The note with it: for mean liver weight: FIG. 5B. As for the experimental part:
as §1

The subject of data set [5] is SCD1, MOGAT2, FoxA2 mRNA in liver. Description: Hepatic gene expression (qPCR) in ob/ob mice. Format: in vivo. The note with it: day 6, 1 mg/kg QD. A general note: In qPCR the cycle at which signal appears reflects the starting amount.
Data set [6] deals with high-fat diet-induced obese mice. Nature of the data set: Oral glucose tolerance test in DIO mice (FGF21 conjugates). Format: in vivo. The note with it: day 10, 1 mg/kg QD. Here is the method: as §1
Data set [7] has the same test system. Description: Serum lipids in DIO mice. Format: in vivo. The note with it: day 10, 1 mg/kg QD.

One may read the EC50 as the concentration giving half of the maximal effect.

Where two headings read alike, the source gives them in different places. Marks after values point to notes of the source that are not given here.

Glut1 mRNA expression in differentiated 3T3-L1 adipocytes, sequence (P16092 22-822): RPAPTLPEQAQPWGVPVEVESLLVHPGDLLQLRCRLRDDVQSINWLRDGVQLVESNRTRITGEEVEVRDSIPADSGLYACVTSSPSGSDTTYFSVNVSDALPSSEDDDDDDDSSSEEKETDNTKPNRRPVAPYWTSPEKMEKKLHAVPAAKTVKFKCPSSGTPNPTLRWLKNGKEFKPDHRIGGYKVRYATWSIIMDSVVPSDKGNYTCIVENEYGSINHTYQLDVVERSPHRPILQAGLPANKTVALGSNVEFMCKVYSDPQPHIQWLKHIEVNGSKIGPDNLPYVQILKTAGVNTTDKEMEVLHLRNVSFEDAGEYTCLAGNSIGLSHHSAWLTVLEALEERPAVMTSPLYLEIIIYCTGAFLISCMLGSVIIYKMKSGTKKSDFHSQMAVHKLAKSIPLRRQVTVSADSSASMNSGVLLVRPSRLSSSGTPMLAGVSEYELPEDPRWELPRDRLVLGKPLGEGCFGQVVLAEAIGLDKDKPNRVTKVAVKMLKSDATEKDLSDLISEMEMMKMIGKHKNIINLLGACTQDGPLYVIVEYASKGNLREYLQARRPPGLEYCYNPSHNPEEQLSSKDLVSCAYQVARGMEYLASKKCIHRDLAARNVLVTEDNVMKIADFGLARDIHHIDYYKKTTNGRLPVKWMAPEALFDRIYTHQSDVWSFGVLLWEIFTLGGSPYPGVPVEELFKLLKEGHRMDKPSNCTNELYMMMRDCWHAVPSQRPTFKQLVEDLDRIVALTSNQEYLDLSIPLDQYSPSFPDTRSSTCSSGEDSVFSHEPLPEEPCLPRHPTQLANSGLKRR
Glut1 mRNA expression in differentiated 3T3-L1 adipocytes, sequence (Q99N32 whole entry): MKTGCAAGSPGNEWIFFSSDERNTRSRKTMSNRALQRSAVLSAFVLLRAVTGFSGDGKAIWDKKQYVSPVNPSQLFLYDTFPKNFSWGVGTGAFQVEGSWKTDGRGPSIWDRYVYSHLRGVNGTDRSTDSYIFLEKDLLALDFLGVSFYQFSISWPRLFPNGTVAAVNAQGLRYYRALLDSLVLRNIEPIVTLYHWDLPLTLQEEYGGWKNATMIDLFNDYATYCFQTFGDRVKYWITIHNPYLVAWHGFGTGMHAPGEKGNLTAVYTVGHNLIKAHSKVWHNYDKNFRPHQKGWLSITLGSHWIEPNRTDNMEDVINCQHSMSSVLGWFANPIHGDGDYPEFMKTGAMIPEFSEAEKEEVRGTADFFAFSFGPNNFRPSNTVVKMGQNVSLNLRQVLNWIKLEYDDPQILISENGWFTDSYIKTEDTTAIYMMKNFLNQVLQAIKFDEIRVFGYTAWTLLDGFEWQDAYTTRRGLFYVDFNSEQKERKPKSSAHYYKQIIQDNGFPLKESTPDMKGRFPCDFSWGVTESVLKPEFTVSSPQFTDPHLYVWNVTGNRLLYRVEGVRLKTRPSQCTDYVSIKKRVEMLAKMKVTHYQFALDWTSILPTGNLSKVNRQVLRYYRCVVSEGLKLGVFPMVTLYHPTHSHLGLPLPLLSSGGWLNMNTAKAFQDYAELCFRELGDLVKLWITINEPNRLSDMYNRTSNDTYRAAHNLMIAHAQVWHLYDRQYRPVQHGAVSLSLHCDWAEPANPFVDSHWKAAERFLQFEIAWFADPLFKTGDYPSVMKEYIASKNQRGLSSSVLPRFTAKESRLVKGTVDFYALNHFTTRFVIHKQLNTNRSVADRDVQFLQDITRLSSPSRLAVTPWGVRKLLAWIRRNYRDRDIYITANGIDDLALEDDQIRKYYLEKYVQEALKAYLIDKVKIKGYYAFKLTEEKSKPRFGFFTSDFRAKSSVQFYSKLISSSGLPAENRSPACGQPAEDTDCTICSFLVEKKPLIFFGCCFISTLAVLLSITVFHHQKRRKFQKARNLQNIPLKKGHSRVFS
differentiated 3T3-L1 adipocytes, sequence (P16092 22-822): as the sequence (P16092 22-822) above
differentiated 3T3-L1 adipocytes, sequence (Q99N32 whole entry): as the sequence (Q99N32 whole entry) above

B1: FGF21ΔH: FGF21 with H1 absent, L146 (SEQ ID NO:2), produced from E. coli (protein, listed as Homo sapiens)
chain: PIPDSSPLLQFGGQVRQRYLYTDDAQQTEAHLEIREDGTVGGAADQSPESLLQLKALKPGVIQILGVKTSRFLCQRPDGALYGSLHFDPEACSFRELLLEDGYNVYQSEAHGLPLHLPGNKSPHRDPAPRGPARFLPLPGLPPALPEPPGILAPQPPDVGSSDPLSMVGPSQGRSPSYAS
As to B1, the “activity in Glut1 Taqman assay (in words)” value in data set [1] (3T3-L1 adipocytes) is given as “dose-dependent Glut1 induction”. Moreover, the EC50 was 3.39 nM in data set [1] (3T3-L1 adipocytes, serum-free DMEM 0.2% BSA, 6 hrs, Taqman quantitative real-time PCR, read-out: Glut1 RNA expression EC50); 2.3 nM in data set [1] (unconjugated FGF21 mutant protein, n in parentheses, read-out: Glut1 Taqman unconjugated Protein EC50); 12 nM in data set [2]. In addition, the “% SC BioAv” value in data set [3] worked out at 96%. Besides, in data set [3], the “IV T1/2” value worked out at 24 min. Further, the “SC T1/2” value in data set [3] was found to be 30 min. The “mean glucose AUC % during OGTT” value in the data set on ob/ob mice (FIG. 6B, ob/ob mice, single dose, dose not given) stood at 63%. Moreover, the “Mean Glucose AUC (% of vehicle control) during OGTT” value in the data set with ob/ob mice (ob/ob mice, single SC dose 0.6 mg/kg) is recorded as 103 % of vehicle control; in the data set with ob/ob mice (ob/ob mice, single SC dose 1 mg/kg), 74 % of vehicle control. The “Mean Glucose AUC (% of vehicle control)” value in the data set on ob/ob mice (ob/ob mice, OGTT on day 6, 1 mg/kg QD) is given as 61** % of vehicle control. The “Glucose AUC during OGTT (% of vehicle control)” value is given as 67*** % of vehicle control in the data set with ob/ob mice (ob/ob mice, day 6, 1 mg/kg QD) and 75*** % of vehicle control in data set [6]. Also, the “GTT* (% AUC of Ctrl)” value in the data set on ob/ob mice (protein, 1 mg/kg Qd) is reported as 67 % AUC of Ctrl. In addition, the “Cumulative body weight change, mean body weight” value in data set [4] (FIG. 5A, single SC dose 0.6 mg/kg) amounted to 3.2 g; in data set [4] (FIG. 5A, single SC dose 1 mg/kg), 2.5 g; in data set [4] (FIG. 6A, single dose, dose not given), 1.9 g. Further, the “mean liver weight” value is 2.4 g in data set [4] (single SC dose 0.6 mg/kg) and 2.2 g in data set [4] (single SC dose 1 mg/kg). Further, in data set [5], the “Mean fold change of mRNA expression, FoxA2 (SEM)” value is given as 1.23 (0.08) fold. Further, in data set [5], the “Mean fold change of mRNA expression, MOGAT2 (SEM)” value was 0.37 (0.05)** fold. For the same molecule, in data set [5], the “Mean fold change of mRNA expression, SCD1 (SEM)” value is reported as 0.95 (0.06) fold. Further, the “Mean values of serum lipids NEFA (mM) (SEM)” value in data set [7] is 0.40 (0.04) mM. Also, in data set [7], the “Mean values of serum lipids TG (mg/dL) (SEM)” value is recorded as 92 (9.6)** mg/dL.
